{
  "source": "paper PMC3174036",
  "origin": "cited, not measured here",
  "biological_target": "VEGFR-2 D7 D7 (Homo sapiens) (UniProt P35968)",
  "data": [
    {"substance": "VEGFR-2 D7 D7 (from UniProt P35968)", "values": [
      {"measurement": "Kd", "result": 100, "unit": "µM"}
    ]}
  ]
}
